experiment: soluble on expression in E. coli; label from the status in PepcDB or PDB records

Sequence | soluble on expression in E. coli
MGSDKIHHHHHHMMEEYLGVFVDETKEYLQNLNDTLLELEKNPEDMELINEAFRALHTLKGMAGTMGFSSMAKLCHTLENILDKARNSEIKITSDLLDKIFAGVDMITRMVDKIVSEGSDDIGENIDVFSDTIKSFASSGKEKPSEIKNETETKGEEEHKGESTSNEEVVVLPEEVAHVLQEARNKGFKTFYIKVILKEGTQLKSARIYLVFHKLEELKCEVVRTIPSVEEIEEEKFENEVELFVISPVDLEKLSEALSSIADIERVIIKEVTAVTEESGAEKRTEKEEKTEKTEEKAERKKVISQTVRVDIEKLDNLMDLMGELVIARSRILETLKKYNIKELDESLSHLSRITLDLQNVVMKIRMVPISFVFNRFPRMVRDLAKKMNKEVNFIMRGEDTELDRTFVEEIGEPLLHLLRNAIDHGIEPKEERIAKGKPPIGTLILSARHEGNNVVIEVEDDGRGIDKEKIIRKAIEKGLIDESKAATLSDQEILNFLFVPGFSTKEKVSEVSGRGVGMDVVKNVVESLNGSISIESEKDKGTKVTIRLPLTLAIIQALLVKVNNLVYAIPIANIDTILSISKEDIQRVQDRDVIVIRGEVIPVYRLWEVLQIEHKEELEEMEAVIVRVGNRKYGIVVDDLLGQDDIVIKSLGKVFSEVKEFSGAAILGDGSIALIINVSGIV | not soluble
VTWKGSGQETVGAEPTLWAISDLHTGHLGNKPVAESLYPSSPDDWLIVAGDVAERTDEIRWSLDLLRRRFAKVIWVPGNHELWTTNRDPMQIFGRARYDYLVNMCDEMGVVTPEHPFPVWTERGGPATIVPMFLLYDYSFLPEGANSKAEGVAIAKERNVVATDEFLLSPEPYPTRDAWCHERVAATRARLEQLDWMQPTVLVNHFPLLRQPCDALFYPEFSLWCGTTKTADWHTRYNAVCSVYGHLHIPRTTWYDGVRFEEVSVGYPREWRRRKPYSWLRQVLPDPQYAPGYLNDFGGHFVITPEMRTQAAQFRERLRQRQSR | not soluble
MKDFLRLELPVLPLRNTVVLPHTTTGVDVGRLKSKRAVEEALSADRLLFLVTQKDPEVDDPAPEDLYAVGTLAVVKQAMRLPDGTLQVMVEARSRARLLSYVAAPYLRAVGEAIPEPPLKDPELARVLVNEVQEAFERYLQNHKTLRLDRYQQEAVKSTRDPAILADLVAHHATWTLEEKQTILETPEVEERLKRVLALLLRDLERFELDKKIAARVKEQMDQNQREYYLREQMKAIQKELGGGEDFLTEIEELRERIEKKGMPEPVKEKALKELKRLERMQPGSPEATVSRTYLDWLLEVPWTEADPEVLDISVTKRVLDEDHYGLKEVKERILEYLAVRQLTQGKEVKGHAPILCFVGPPGVGKTSLGKSIARSMNRRFHRISLGGVRDEAEIRGHRRTYIGALPGKIIQGMKQVGVVNPVFLLDEIDKLSSDWRGDPAAALLEVLDPEQNHTFTDHYLDVPYDLSKVFFITTANTLSTIPRPLLDRMEVIEIPGYTLHEKRAIARYFRWPFQVKEAGLEGRLEITDRAIERIVQEYTREAGVRNLDRELSKVARKAAKDYLEKPWEGVRVVDAEDLEAYLGVPKYRPDRAEKEPQVGAAQGLAWTPYGGTLLTIEAVAVPGTGKVNLTGNLGEVMKESDHAVLTYLRVHREEWGLPEGFHKDYDLHIHVPEGATPKDGPSAGITIATALASALTGRPVRMDIAMTGEITLRGRVLPIGGVKEKLLAAHQAGIHRVILPKENAAELKEVPEEILKDLEIHFVEEVGEVLKLLLLPPPPPPAVQPDRPQPGVGA | soluble
NPIEMDYIRQIEDVNNRRMKALRPPHRKEVLKAREDDIKDRVQNWMSRENEPRLQRISSELLKEYDSTELVASLLQELVEANDEVE | not soluble
MTSWADIQKLASDLQRVQLSQSSKKLSEVNCIEVLQKLIASHRIDVVYTRDGHSYVTKNHLETEIKNECIAAGGRASLTDIAVALNIDFDHIEKTSRLIVSTDDEFTISNAEIFATEYVHRLRNELRTLLDEQGNQTTAALCKHWNLSSELLQSLLIEKLGSSDFQGVVDGDTIYTSSFLNARQLVLRAILIALTKITPISTIQKRVGLTPKRFWIAFENLQSLGEIPGTLIGSRTSPSCSYRPMMYDHLVKSCVLNQYRQNEFLEISTLKTLGVDAKPALEEVLGSSEFKKLVSMRSMFMTKELMDQCINAVQEDLQKSGISDVHLALQSLNLPLDTADEDEIGSKVANVEKDSHFAEGFVFKGAVLTEALRSIDKLLDVRAHEEVDRLEAEKKKQGGAKAAVKVQEETDDWGDGKKGGKGGKKNAKSVKGGSKSSAPSTSSNLSANISINSEELEIWLRESQSVPEEILSVIVEKLNQETTTLLRKKVQDIQAHQLVASVANSKKSLSAIGDKCRQLYDSFNTFETATSTFADPLGSDLRQYLLKTVGNEIALALLSYVMGVDNAHQLKEKQREETIENLPEMLRDPIRSVFASLKSTDDDALDKFHDAVYNCSAPSATSLALKKVDKKGRAEVGAKITAELHEQLCSQTEPATTLLLSVLYILAKAGRPTTASGKFVSQLVAQIKDLCPENVFDLLQACQKGVVTCIKNKGDEVAKEMLVNDISSLKQSIMP | not soluble
MAELACFVSFSLTEDKVVWYPINKKAVQTMLCAKVEKDQRSNYYDTILYGVAPPPEFRNRFKTNERYGLDYESDQYTELVNLLADTLNMVSMPTEKFQFDIVKTVVQVRHLENLLCRIKDVNDILNANVKLRVKAVMIACNLVNETETTPLTESNDIVYQDSYFTITKLDYSNHKLLPLMADEYKITINTKTDIPDRNQTAFAAYIRYNFNKFAAISHGKRHWRLVLHSQLMSHAERLDRKIKSDKKHGRQFSYDDGDMAFVHPGWKTCIGQLCGGTTFEVAKTSLYSIKPSKTVRTATNKIESDLISMVGN | soluble
FEKMKKEVEEILYNLKKEGGKYHCILAFSGGKDSVLALKLLKEKFKLNPLCVMVDNKYMAKEAIENALNVTKHYQVDLMILNRDYTDLFEDAIKRGESPCRRCSRLILREVWRVTKLLGLKYIITGHELP | not soluble
MVCLESDTCQSSQLLNTSFKRGFFSNLYPMIKRTAVERCPLFSVETGFYLKAPGILFVIERKKKQMNHETIQKLQFTTILKEVQTRAIGEYSKERLAKMVPATRLETVQSRLTETTEARLIIDSGQHVPFMGLSQITRLLQQVKKGLILTPNELIEVADFLRSSQRIQKFFEKNQYQTPRLFSYSQHLADFRAIEEQIYTKIHNQKVATDASRQLRKIRRQINECQQEIETKVTKFLRNKNNQLYIQENMMVKKGEHYTVPIKASYKNKVSGTIIEQSNKGQTVFIEPVAISKLNEQLTLLKAEETAEEYQILAELTGLINEQERLVDQAVDTMTTLDIIFARGKYSREIGGITPKVNKEERLRIVQGKHPLLLEHAVPLTFSLGAEYRGLVITGANAGGKTVVLKTVGLLTVMTQFGLQIPAQAGTEIPVLDEIFVDIGDQQNLENALSTFSGHMKNIAEMLRNVKRHTLVLLDEIGSGTEPNEGAGLAIAIMETMYQKGALVVATTHYGEIKRFAQEHDDFVPAAMAFDRETLTPKYQLKIGEVGDSQALWIARKMKMEPQLIEKAAHYIQRKEYPTNRSLFKPLKAKETTFATFVEETHRYQKGDRVLLTETQQIGLVFTDEGEQEIQVFVNDKIENVPRRRLKLQAKAQDLYPQDYDLESLFTDFHERKKLKDIERGSKKAQKQLRKEAEKRAARRDK | not soluble
MNAPLRFGPYAVSRFVDGVYKAPVGHLIHRQGAVALAAVVAGLEGETVDMDVNCFALSGPDGVWLIDAGCGTAWGAAYGHARAAMLAAGIQPDDVSRVILTHIHGDHALGLIDGDRPYFPNAEIWVPEADLAFFTNADARKTLPPARQGGFDLAARLLDICGAMLRPIPTGTVAEDIEAIAMPGHTPGHMGYLIGSGDARLLLWGDVLHVGELQAADPEIAFVYDIDSELAYATRLAALAEAADHGWLVSGGHLGGFFHIERRGDSFRFVPQPG | not soluble
MRMRLMLLGGGNALGQALIRLGAEEDIAFLAPRPPENGWAPSSLTQLLDDHRPDALVNLAYYFDWFQAESVSEQRLAQQERAVERLAELCQHHQITLVQPSSYRVFDGSRATAYSEKDEPVPLGLRGQALWRIEQSVRAACPQHVLLRFGWLLDESIDGALGRFLTRAEQPQELLLADDRRGNPTPVDDAARVILSVLKQLDCNAPLWGTYHYAGNEATTPLALGQAILAEAGQYRQLAVQAPTPQAHAARPDASEEPQHAVLACKKILHTFGIKPRAWRAGLPPLLDRFYRHG | not soluble
MELDFDKMNGLVPAIIQDNETRKVLMLGFMNKEAYDKTVETGKVTFFSRTKNRLWTKGEESGNFLHVVSIKADCDNDTLLIQADPAGPVCHTGTDTCWGEKNEEPVMFLKALQDFIDKRHEEMPQGSYTTSLFESGINKIAQKVGEEAVETVIEATNGTNERLIYEGADLIYHMIVLLTSKGYRIEDLARELQERHSSTWKKH | not soluble
GMTLAALCQGVLERLDPRQPGRQLVALSGAPGSGKSTLSNPLAAALSAQGLPAEVVPMDGFHLDNRLLEPRGLLPRKGAPETFDFEGFQRLCHALKHQERVIYPLFDRARDIAIAGAAEVGPECRVAIIEGNYLLFDAPGWRDLTAIWDVSIRLEVPMADLEARLVQRWLDHGLNHDAAVARAQGNDLANARAIEAARLPADLTWPQA | soluble
MGHHHHHHSHMPKVYGSLIDTETRCRHYFTEEDIIAIKFKCCNKYYPCYKCHNEFEKHAIKRWSEPSFNEKAILCGVCKHELTINEYMMVERCPNCQSRFNNRCKYHYHIYFEI | soluble
MSLADKLSLETLESWLWESANILRGSIDSSDFKNYIFGLLFLKRYNDVFDERVTKLREEENLSYGEAQEEIEDKWGKYPISARWFDLISRTENIGEALDKAFATIEANNPELQHVLTATQYGDKRVLADATLQRLLRHFNQYKLGNDDLYKADMLGDAYEYLIKQFADDAGKKGGEFYTPKAVVQLVVELIDPRPGHSVYDPTCGSGGMLVESAHHVSGLPDGTLMGKPNVLLYGQEKNLGTWAIAKLNLYLHNMHASIERGDTLVEPKHLDGDYLKTFDRVIANPPFSAKSWWTPLELSNENEQENGKKVKAPNYKQVSDPYGRLVYGVPPRGYADLAFAQHMLASLKADGRMGVILPHGVLFRSGEEGKIREGLLFGTGAASGNQPGDVIEAIVGLPSALFYNTGIPACVLILNKQKPSALKDKVIIIDGSRDYLEGKAQNSLHAEDILRIVSTHKAAFEQQVEVENYCRLVTLDEIRSNDGNLNIVRYIDNGESDEVVNVAATLAHMATLAKEEAQIDQRLNRYLMELGLLETGEGHHHHHH | soluble
AIAPLGEEKNGKCDGSIYVNNPHLDSMTDDILYHFNLGTSTHDLPKMFGDVKFVCVGGSPWRMKSFTEYIAKELGLVDPNAEYPNICAGTDRYAMYKVGPVLSVSHGMGIPSISIMLHELIKLLYHARCTDVTVVRIGTSGGIGLKPGTVVVTKQSVDSLFQPHLEQTILGKPVVRSTELDKELAEELLQCGKELGEFEIIIGNTMCTLDFYEGSNVFEDKCTRIAAYSFKIHVL | soluble
MSSIKTSPTKKTSESTTKQDTPNDQTNIENFDEEPSMLSDPEDYLEENETLDMNLSKGDQKVWLVKLPKYLMDDWSNPDSMNGQQLGNVKIKKDARGKLQVKLLLDNKNDRIPKEYDIKMLNTQVRNSYVFTEENLKKFKQEVTEVSDMPEQPQLKELNPEKKKFQVRRKFKYFRVQKEGENGQPVKKYIPFVKTIPKKTSLMGKVCHDCTVVPARTGSKHGESLMKHQNMTQGKERPKVTLLNEIPGVIQSNAGPSIKGNAASIFLKSTQGKNKSEGRTIRMPKKDLLDLLFRLFEEYEYWSMKGLKERTRQPESYLKESLESIATLIKRGPYTSKYTLKAEYRRLRDAERAVRLGLDEDDQNKENNEDEDEDEEMEDVV | soluble
